tested on: HTRA1-inhibiting peptides (Example 3-2 and 3-3, members not named)

Human plasma kallikrein, sequence (chain, as listed by the source): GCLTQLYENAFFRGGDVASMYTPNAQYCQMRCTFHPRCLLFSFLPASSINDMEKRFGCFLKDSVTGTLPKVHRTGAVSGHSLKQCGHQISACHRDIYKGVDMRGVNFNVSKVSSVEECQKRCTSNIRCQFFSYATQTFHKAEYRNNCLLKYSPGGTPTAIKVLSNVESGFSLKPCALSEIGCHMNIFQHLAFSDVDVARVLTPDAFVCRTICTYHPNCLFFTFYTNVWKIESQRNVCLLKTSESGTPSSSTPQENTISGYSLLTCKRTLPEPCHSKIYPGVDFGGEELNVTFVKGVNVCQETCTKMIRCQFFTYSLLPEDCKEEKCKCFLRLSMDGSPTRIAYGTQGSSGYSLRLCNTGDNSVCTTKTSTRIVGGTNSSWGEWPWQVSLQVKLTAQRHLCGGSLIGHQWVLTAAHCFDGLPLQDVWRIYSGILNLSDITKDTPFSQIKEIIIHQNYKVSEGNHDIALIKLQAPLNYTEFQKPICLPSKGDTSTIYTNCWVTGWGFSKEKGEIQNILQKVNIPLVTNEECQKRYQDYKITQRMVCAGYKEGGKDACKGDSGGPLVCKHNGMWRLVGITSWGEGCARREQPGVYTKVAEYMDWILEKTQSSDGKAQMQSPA

Substance | protease activity (decomposition of a peptide substrate)
Bovine α-chymotrypsin | did not suppress the protease activity of any of the proteases at a final inhibitor concentration of 1 micro M
Human plasma kallikrein | did not suppress the protease activity of any of the proteases at a final inhibitor concentration of 1 micro M
Human protein C | did not suppress the protease activity of any of the proteases at a final inhibitor concentration of 1 micro M
Human thrombin | did not suppress the protease activity of any of the proteases at a final inhibitor concentration of 1 micro M
Human tryptase | did not suppress the protease activity of any of the proteases at a final inhibitor concentration of 1 micro M
Human uPA | did not suppress the protease activity of any of the proteases at a final inhibitor concentration of 1 micro M
